The source of these data is patent US20210388087A1.

Changes are numbered by the printed parent chain. Names and notes keep the numbering of the source.

One experiment concerns the target Human CD137 ECD (human). Nature of the experiment: Biacore SPR, vs parent H183/L072. In general terms: Surface plasmon resonance follows binding to a sensor surface in real time, without labels.
Experiment [1] has as its target Human CD3eg linker (human). Kind of experiment: SPR; fold vs parent H183/L072.

Human CD3eg linker (human), sequence (chain, as listed by the source limits assumed): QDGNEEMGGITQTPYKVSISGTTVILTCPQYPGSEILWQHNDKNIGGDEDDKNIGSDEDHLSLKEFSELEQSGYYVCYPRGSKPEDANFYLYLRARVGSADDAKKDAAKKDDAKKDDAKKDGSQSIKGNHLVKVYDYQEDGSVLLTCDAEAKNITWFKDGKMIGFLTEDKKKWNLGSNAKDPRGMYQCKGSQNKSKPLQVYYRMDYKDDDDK
Human CD137 ECD (human), sequence (chain, as listed by the source limits assumed): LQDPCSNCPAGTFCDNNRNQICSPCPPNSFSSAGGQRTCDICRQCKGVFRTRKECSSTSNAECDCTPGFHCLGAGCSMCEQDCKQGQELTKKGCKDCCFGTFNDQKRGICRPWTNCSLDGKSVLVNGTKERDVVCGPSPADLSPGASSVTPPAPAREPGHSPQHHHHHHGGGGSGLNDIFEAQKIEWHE

B1: H183/L072 VL T31G (antibody, name in Kabat numbering, V domains shown)
VH: QVQLVESGGGLVQPGRSLRLSCAASGFTFSNAWMHWVRQAPGKGLEWVAQIKDKGNAYAAYYAPSVKGRFTISRDDSKNSIYLQMNSLKTEDTAVYYCHYVHYASASTVLPAFGVDAWGQGTTVTVSS
VL: DIVMTQSPLSLPVTPGEPASISCQASQELVHMNRNGYLHWYQQKPGQAPRLLIYKVSNRFPGVPDRFSGSGSGTDFTLKISRVEAEDVGVYYCAQGTSVPFTFGQGTKLEIK
Turning to B1, the fold change of affinity in the experiment with Human CD137 ECD (human) amounted to 0 fold.

B2: H183/L072 VL A89N (antibody, name in Kabat numbering, V domains shown)
VH: B1 VH
VL: B1 VL with G36T, A94N
Consider B2, for which the fold change of affinity in experiment [1] was 0 fold.

B3: H183/L072 VL P95G (antibody, name in Kabat numbering, V domains shown)
VH: B1 VH
VL: B1 VL with G36T, P100G
B3: the fold change of affinity in experiment [1] worked out at 0 fold.

B4: H183/L072 VL F96G (antibody, name in Kabat numbering, V domains shown)
VH: B1 VH
VL: B1 VL with G36T, F101G
Take B4: the fold change of affinity in experiment [1] came to 0 fold.

B5: H183/L072 VL K50N (antibody, name in Kabat numbering, V domains shown)
VH: B1 VH
VL: B1 VL with G36T, K55N
For the molecule B5, the fold change of affinity in experiment [1] stood at 0 fold.

B6: H183/L072 VL Q90V (antibody, name in Kabat numbering, V domains shown)
VH: B1 VH
VL: B1 VL with G36T, Q95V
For the molecule B6, the fold change of affinity in experiment [1] came to 0 fold.

B7: H183/L072 VL T97W (antibody, name in Kabat numbering, V domains shown)
VH: B1 VH
VL: B1 VL with G36T, T102W
As for B7, the fold change of affinity in experiment [1] is 0 fold.

B8: H183/L072 VL Q90F (antibody, name in Kabat numbering, V domains shown)
VH: B1 VH
VL: B1 VL with G36T, Q95F
Turning to B8, in experiment [1], the fold change of affinity stood at 0 fold.

B9: H183/L072 VL S93P (antibody, name in Kabat numbering, V domains shown)
VH: B1 VH
VL: B1 VL with G36T, S98P
As to B9, the fold change of affinity in experiment [1] was 0 fold.

B10: H183/L072 VL K50Q (antibody, name in Kabat numbering, V domains shown)
VH: B1 VH
VL: B1 VL with G36T, K55Q
Regarding B10, the fold change of affinity in experiment [1] came out at 0 fold.

B11: H183/L072 VL F96N (antibody, name in Kabat numbering, V domains shown)
VH: B1 VH
VL: B1 VL with G36T, F101N
Consider B11, for which, in experiment [1], the fold change of affinity was 0 fold.

B12: H183/L072 VL V94W (antibody, name in Kabat numbering, V domains shown)
VH: B1 VH
VL: B1 VL with G36T, V99W
Take B12: the fold change of affinity in experiment [1] is 0 fold.

B13: H183/L072 VL K50W (antibody, name in Kabat numbering, V domains shown)
VH: B1 VH
VL: B1 VL with G36T, K55W
Consider B13, for which the fold change of affinity in experiment [1] came out at 0 fold.

B14: H183/L072 VL F96W (antibody, name in Kabat numbering, V domains shown)
VH: B1 VH
VL: B1 VL with G36T, F101W
For the molecule B14, the fold change of affinity in experiment [1] came out at 0 fold.

B15: H183/L072 VL K50G (antibody, name in Kabat numbering, V domains shown)
VH: B1 VH
VL: B1 VL with G36T, K55G
Consider B15, for which the fold change of affinity in experiment [1] came to 0 fold.

B16: H183/L072 VL Q90N (antibody, name in Kabat numbering, V domains shown)
VH: B1 VH
VL: B1 VL with G36T, Q95N
For B16, the fold change of affinity in experiment [1] was found to be 0 fold.

B17: H183/L072 VL P95R (antibody, name in Kabat numbering, V domains shown)
VH: B1 VH
VL: B1 VL with G36T, P100R
Take B17: the fold change of affinity in experiment [1] stood at 0 fold.

B18: H183/L072 VL V94G (antibody, name in Kabat numbering, V domains shown)
VH: B1 VH
VL: B1 VL with G36T, V99G
With B18, the fold change of affinity in experiment [1] is 0 fold.

B19: H183/L072 VL Q90G (antibody, name in Kabat numbering, V domains shown)
VH: B1 VH
VL: B1 VL with G36T, Q95G
For B19, in experiment [1], the fold change of affinity came to 0 fold.

B20: H183/L072 VL T92W (antibody, name in Kabat numbering, V domains shown)
VH: B1 VH
VL: B1 VL with G36T, T97W
Regarding B20, the fold change of affinity in experiment [1] worked out at 0 fold.

B21: H183/L072 VL V51N (antibody, name in Kabat numbering, V domains shown)
VH: B1 VH
VL: B1 VL with G36T, V56N
As for B21, in experiment [1], the fold change of affinity came to 0 fold.

B22: H183/L072 VL P95N (antibody, name in Kabat numbering, V domains shown)
VH: B1 VH
VL: B1 VL with G36T, P100N
With B22, the fold change of affinity in experiment [1] stood at 0 fold.

B23: H183/L072 VL T97P (antibody, name in Kabat numbering, V domains shown)
VH: B1 VH
VL: B1 VL with G36T, T102P
For B23, the fold change of affinity in experiment [1] stood at 0 fold.

B24: H183/L072 VL P95W (antibody, name in Kabat numbering, V domains shown)
VH: B1 VH
VL: B1 VL with G36T, P100W
Take B24: in experiment [1], the fold change of affinity was found to be 0 fold.

B25: H183/L072 VL G91V (antibody, name in Kabat numbering, V domains shown)
VH: B1 VH
VL: B1 VL with G36T, G96V
On to B25, for which, in experiment [1], the fold change of affinity amounted to 0 fold.

B26: H183/L072 VL K50V (antibody, name in Kabat numbering, V domains shown)
VH: B1 VH
VL: B1 VL with G36T, K55V
In the case of B26, the fold change of affinity in experiment [1] is 0 fold.

B27: H183/L072 VL Q90R (antibody, name in Kabat numbering, V domains shown)
VH: B1 VH
VL: B1 VL with G36T, Q95R
With B27, the fold change of affinity in experiment [1] was found to be 0 fold.

B28: H183/L072 VL F96P (antibody, name in Kabat numbering, V domains shown)
VH: B1 VH
VL: B1 VL with G36T, F101P
For the molecule B28, the fold change of affinity in experiment [1] was 0 fold.

B29: H183/L072 VL G91W (antibody, name in Kabat numbering, V domains shown)
VH: B1 VH
VL: B1 VL with G36T, G96W
Turning to B29, the fold change of affinity in experiment [1] was 0 fold.

B30: H183/L072 VL F96R (antibody, name in Kabat numbering, V domains shown)
VH: B1 VH
VL: B1 VL with G36T, F101R
For the molecule B30, the fold change of affinity in experiment [1] is 0 fold.

B31: H183/L072 VL H34G (antibody, name in Kabat numbering, V domains shown)
VH: B1 VH
VL: B1 VL with G36T, H39G
Consider B31, for which, in the experiment with Human CD137 ECD (human), the fold change of affinity stood at 0 fold.

B32: H183/L072 VL G91N (antibody, name in Kabat numbering, V domains shown)
VH: B1 VH
VL: B1 VL with G36T, G96N
Regarding B32, in experiment [1], the fold change of affinity was 0 fold.

B33: H183/L072 VL V51F (antibody, name in Kabat numbering, V domains shown)
VH: B1 VH
VL: B1 VL with G36T, V56F
Turning to B33, in experiment [1], the fold change of affinity worked out at 0 fold.

B34: H183/L072 VL Q90W (antibody, name in Kabat numbering, V domains shown)
VH: B1 VH
VL: B1 VL with G36T, Q95W
Consider B34, for which, in experiment [1], the fold change of affinity turned out to be 0 fold.

B35: H183/L072 VL F96V (antibody, name in Kabat numbering, V domains shown)
VH: B1 VH
VL: B1 VL with G36T, F101V
B35: the fold change of affinity in experiment [1] was found to be 0 fold.

B36: H183/L072 VL P95V (antibody, name in Kabat numbering, V domains shown)
VH: B1 VH
VL: B1 VL with G36T, P100V
Consider B36, for which the fold change of affinity in experiment [1] came out at 0 fold.

B37: H183/L072 VL A89R (antibody, name in Kabat numbering, V domains shown)
VH: B1 VH
VL: B1 VL with G36T, A94R
For the molecule B37, the fold change of affinity in experiment [1] was 0 fold.

B38: H183/L072 VL T31N (antibody, name in Kabat numbering, V domains shown)
VH: B1 VH
VL: B1 VL with G36N
Regarding B38, the fold change of affinity with Human CD137 ECD (human) was 0 fold.

B39: H183/L072 VL G91F (antibody, name in Kabat numbering, V domains shown)
VH: B1 VH
VL: B1 VL with G36T, G96F
With B39, in experiment [1], the fold change of affinity was 0 fold.

B40: H183/L072 VL V51W (antibody, name in Kabat numbering, V domains shown)
VH: B1 VH
VL: B1 VL with G36T, V56W
As for B40, the fold change of affinity in experiment [1] turned out to be 0 fold.

B41: H183/L072 VL L27bN (antibody, name in Kabat numbering, V domains shown)
VH: B1 VH
VL: B1 VL with L29N, G36T
Consider B41, for which the fold change of affinity with Human CD137 ECD (human) was 0 fold.

B42: H183/L072 VL G91R (antibody, name in Kabat numbering, V domains shown)
VH: B1 VH
VL: B1 VL with G36T, G96R
For the molecule B42, the fold change of affinity in experiment [1] was determined as 0 fold.

B43: H183/L072 VL P95F (antibody, name in Kabat numbering, V domains shown)
VH: B1 VH
VL: B1 VL with G36T, P100F
Take B43: the fold change of affinity in experiment [1] came to 0 fold.

B44: H183/L072 VL K50F (antibody, name in Kabat numbering, V domains shown)
VH: B1 VH
VL: B1 VL with G36T, K55F
As to B44, the fold change of affinity in experiment [1] turned out to be 0 fold.
